Experiment: soluble on expression in E. coli; label from the status in PepcDB or PDB records

| Sequence | soluble on expression in E. coli |
| --- | --- |
| GMSDEQHDSVWPPPGLDFSKPTIARVYDALLGGKDNFEADRALADYACKHIPGLKESAIENRKVLVRGVRFLAGEAGISQFLDLGSGLPTVQNTHEVAQSVNPDARVVYVDIDPMVLTHGRALLAKDPNTAVFTADVRDPEYILNHPDVRRMIDFSRPAAIMLVGMLHYLSPDVVDRVVGAYRDALAPGSYLFMTSLVDTGLPAQQKLARITRENLGEGWARTPEEIERQFGDFELVEPGVVYTALWRPDEPVDPDNLSPGEQLGMAGIGRKKA | soluble |
| MNERKKSIDELLSDLGVLEEAPVEVELKESGTPEAQGDPRAFLEEFLGGLLLLLDPGHRLEVRVEGETLKAEVKGGDLGRFIGKEGRTLRAVEHLARVVLARRFGTGYRLVLDAAGYRSRAEARIRRLAEEAALTVAMTGEPLHLPPMPPGERRIVHMLLKNHPRVTTESQGEGEERHVVVYPRREAQG | soluble |
| MKQTTINHSVELVGIGLHKGVPVKLVLEPLGENQGIVFYRSDLGVNLPLKPENIVDTKMATVLGKDNARISTIEHLLSAVHAYGIDNLKISVDNEEIPIMDGSALTYCMLLDEAGIKELDAPKKVMEIKQAVEIRESDKFVKIEPDSQLSLNFTIDFNHPVIAKQAHHFVFSKTAYKEQVAKARTFGFLQEVNYLRSIGLAKGGSLNNCIVLDENSILNKEGLRCEKEFVCHKILDAMGDLMVLGMPVMGKYTSFSGSHKLNSMLVKAILADAKNYEVLIAADPAKEFALQKAFALEHHHHHH | not soluble |
| MAPSSLSQSFDHAAQTPEIFEKVPSRTVGRKATITKEELFQAALNLIGPEKSISSLSLREVAREAGIAPNSFYRHFRDIDELAIDLINRAGLVLRHIIRESRLQASKQNSIIRSSVEVFIQQLDADEGNLSLLLREAYTGSKSYKEAVERQLNFFQQELQEDLIRLERLNHSRLSHPDLVARAITQLVFTMGAKVLDLPINQRTAVAEQTMIMIRMILEGARHLDESKIR | soluble |
| MERKWIKKKAHIVPTHAMYGLAQVLKDIGIDVISLVNYALNLHDYHYNGFEPGFSRYSKKEEVFRDLITLVKETRKVIDIYYSKYEVKEILGKINELIKELTEGNKLEHHHHHH | not soluble |
| MGSDKIHHHHHHVNAIQVPDAPVVLSTASVYPEKTPAAFEIAAELGYDGIEVMVTADPVSQDIDMLRRLSEYHQIPITAIHAPCLIFTQRVWGRDPWIKLIKSKEMAEALGATTVVVHPAFKWQREYAREFESGILKMRDETDVIFAVENMYQVRMRGKEVVPYAPSWNPLDRDYPNVTLDLSHTAMSQSDAMDMARQLGDRLSHVHLADGVGGQNFDEHLIPGRGNQPCAELLEHLANNDYRGQIVLEVNTRKSDRETRLTELAEALAFTRLHFARSVPPEPRSEQPEREQIVVRSVPAPALRVFSVHSDGTVSTD | not soluble |
| MKLVLVSTRGVRSLNSTNFPAPWPFVKKGAFGQRKIGPMNYEKFKWPGQNREFPELSPKFQKLNPKELHRYTGVQADGFHDEKTGEFVPVKEMRSELVVPNLDGFKLRPYVSYRTDVQIEKRRVAYEKKVLEKGSERLADLHTVEDERWPPPKMSAETLFELAYGDTVRSAYKEGKYGNK | not soluble |
| MSLDTTPEHLVGTDAETIDLSFAAPAAPVEILHAAFATALEQLPRHFERHGYDRYGTAELREAVARWYQRRGLPTRPDHILITNGAQHALALLTRVLLSPRDKVLIDHPTYPHAITTFTQARARLLPVAVTSSGWDTEQLQAAGQAANLAYLIPDFHNPTGMCMPTSVRQQLRLACPTVVDETMTDLALDVPSPEPLALHMPTAISIGSVSKSVWGGLRTGWIRALPSLLERVEQARPTTDLGTPVVEQLATAVLLNEHQTQRPDTLQQLRSQRDALWQALTEHLPNVHAPQPAGGVTLWAAFPGPVSSRLAAMAPDHGVTIAAGPRFGIGGAFERNIRLPYTLPSSQLAQAIRRLAQAAQALAQGATGTEGHHHHHH | not soluble |
| MSALNELLHDDAIDLNAHAETWQEAIAQAGALLEKTGAITSAYTESMISSVEEQGPYIVVAPGFAFAHARPSEAVKRTAIAWTRLDSPVEFHHSSNDPVTLVVALAAQDDQAHTAAMREIAQVLGSRRRDLDTVATVAELRGVLEASKRRKSRGVAGGATHVTAQDSVESKGKILTVCGNGLGTSLFLKNTLDQVLDTWGWGPFVSTEATDTISAKGRAKEADFLLTSEEIARTLGDVGVPVYVISNFTSEDEIDAALRELYDV | not soluble |
| MSLKNKLQVKIPGKLYVAGEYAVVESGHTAILTAVNRYITLTLEDSERNELWIPHYENPVSWPIGGELKPDGEHWTFTAEAINIATTFLKSEGIELTPVKMVIETELIDQSGAKYGLGSSAAATVAVINALMTKFYPEISMLKKFKLAALSHLVVQGNGSCGDIASCMYGGWIAYTTFDQEWVKHRLAYKSLEWFMKEPWPMLQIETLEEPVPTFSVGWTGTPVSTGKLVSQIHAFKQEDSKNYQHFLTRNNEIMKQIIQAFHTKDEELLYSSIKENRRILQELGTKAGVNIETSLLKELADSAENMGGAGKSSGSGGGDCGIAFSKTKELAEKLVNEWEKLGIKHLPFHTGRVQITEGHHHHHH | soluble |
| MPTNTFFHLPEEKQQRLLDAAQIEFSRHSLQEASIANIVKLAGIPRGSFYQYFENKEDLYFYYFATLRKNSERDLEKQIIAENGDLIEAMDVYFSKMIVEVLTGENASFYRNLFVNMDYRASRRVTDNLATGEEEKNRKQHCHKHRGRKGHAAYAEHLYQIIDHSKLTIETPKEFTWFMQTAMHAVFSTIVDGYRQQRENTAYDSTEAVKQLKMKLSWLKNGAYK | not soluble |
| VERMYDVTPPGVVMGLAWTAMGGSTLFVETSLRRPQDKDAKGDKDGSLEVTGQLGEVMKESARIAYTFARAFLMQHAPANDYLVTSHIHLHVPEGATPKDGPSAGCTIVTALLSLAMGRPVRQNLAMTGEVSLTGKILPVGGIKEKTIAAKRAGVTCIVLPAENKKDFYDLAAFITEGLEVHFVEHYREIFDIAFPDEQAEALAVER | soluble |
| MADDVDNDDKLEKPVDLIWGCELNEQNKTFEFKVEDDEEKCEHQLALRTVCLGDKAKDEFHIVEIVDQEEGAEKVVPIATLKPSILPMATMVGIELDPPVTFRLKAGSGPLYISGQHVAM | soluble |
| MGSDKIHHHHHHMDEQQQLANAYHSNKLSHAYLFEGDDAQTMKRVAIHFTKLILCNNSNQCELKVDTFNHPDFSYVSSDENTIKKEQIEQLVHHMNQLPIEGQYKVYIIEDFEKLTVQGENSILKFLEEPPDNTIAILLSTKPEQILDTIHSRCQHVYFKPIDKRQFIERLVEMSIARPVAEMLSTYTTQIEAASSLNEEFDLVTLRKSIIRWCQLILSNKAMALIGVIELLKQAKNRKLQLLTLSAVNGFFEDIMHAKIEMDNYYTFSDLTEEIENYANQLTFNQLILMYDQITEAHKKLNQNVNPTLVFEQIVIKGVI | not soluble |
| MFSRGASTMQSRELREQLLGCVKSRKSLHVTGPPGSGKSTFVSRLAEALRVKGCRLGGFMAPEVRRGGRRVAFKIVDIASGEEGYLAVADESLAAPGGRRARHGRYLVLVDEAWRVMSHAIRNAFEHADIIIVDEIGPMELAVPGFREALTEILDSGKPLVTVFHRRLRTLDPGLYKLLERGCIVWLDERNRGPLIRLVSEIASALSNEACGNSLEHHHHHH | not soluble |
| MIGVTSCISGDGKSFCSHNLARIYAISGKKTLLIRGDMRKAFNAPANLIPQGSMGLSQHLIGMATIDQIIHKGEIENLYQIIPGPVPPNASELVASQKMEEFIRIMKDKFEVVIMDSPPVGLVSDYMSVIKHIDANLYIVRYDYTPKETLEAIKDLKNKYPAQSHSIIFN | not soluble |
| MTVRSRFFTEAEGKAVGVENAAAKGDVLLVCEHASATIPQKYGTLGLSADVLSSHAAWDPGALAVARLLSEKFHATLVYQRFSRLVYDCNRPPESPSAMPVKSEIYDIPGNFDLDEAERFARTSALYVPFHDRVSEIIAERQAAGRKVVVVTIHSFTPVYHGRFREVEIGILHDNDSRLADAMLAGAEGASLTVRRNDPYGPEDGVTHTLRLHALPDGLLNVMIEIRNDLIANEGEQAAIAGFLHELMGKALSSIEE | soluble |
| SVDYVFNKVMQPHQQMRIRVALGIEDDLRGGGYNVDQSKIAIGSGGFMGKGFLKGTQTKLKYVPEQDTDFIFCTVGEEQG | not soluble |

Source: the DeepSol protein solubility set
